The record followed here is PMC12568027.

The test deals with HIV-2 GL-AN CA P14C/E45C/W184A/M185A (HIV-2 GL-AN).

The term stoichiometry N denotes a count of units in the complex or per binding partner. “HIV-2 GL-AN CA P14C/E45C/W184A/M185A (natural protein)” had a stoichiometry N of 6.
